Data reported in patent US20140213513A1 (Sanofi, priority 2012, published 2014).
*1 amine or outer side, *2 acyl side, *3 side chain or, on linkers, in order; H or OH if unused. Where no end group is shown, it is not given here. Side-chain parts run from the residue outwards. [ ]: non-standard residue; d: D form. The star is where a group is joined. γGlu = O=C(O)[C@H](CCC(=O)[*:2])N[*:1]; Palmitoyl = CCCCCCCCCCCCCCCC(=O)*; Aib = CC(C)(N)C(=O)O

T1: human GIP receptor (human, UniProt P48546 22-466)
T1 sequence (looked up): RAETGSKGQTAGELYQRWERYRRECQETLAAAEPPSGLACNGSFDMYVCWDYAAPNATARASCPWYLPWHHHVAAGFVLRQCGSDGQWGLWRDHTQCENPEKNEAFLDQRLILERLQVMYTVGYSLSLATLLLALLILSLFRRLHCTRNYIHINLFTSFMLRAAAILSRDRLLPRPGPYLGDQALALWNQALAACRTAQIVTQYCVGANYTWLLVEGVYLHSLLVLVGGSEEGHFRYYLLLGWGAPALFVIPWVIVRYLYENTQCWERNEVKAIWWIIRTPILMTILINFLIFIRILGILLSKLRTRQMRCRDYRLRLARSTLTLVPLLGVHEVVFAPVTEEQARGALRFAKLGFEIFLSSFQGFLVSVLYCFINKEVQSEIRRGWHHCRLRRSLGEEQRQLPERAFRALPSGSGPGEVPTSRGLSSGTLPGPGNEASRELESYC

B1: exendin-4 peptide analogue SEQ ID NO: 12 (peptide)
peptide: Y[Aib]QGTFTSDLSIQK([γGlu-Palmitoyl])EKAAA[Aib]EFIEWLKNTGPSSGAPPPS-NH2
modifications: N-terminus assumed
SMILES: CCCCCCCCCCCCCCCC(=O)N[C@@H](CCC(=O)NCCCC[C@H](NC(=O)[C@H](CCC(N)=O)NC(=O)[C@@H](NC(=O)[C@H](CO)NC(=O)[C@H](CC(C)C)NC(=O)[C@H](CC(=O)O)NC(=O)[C@H](CO)NC(=O)[C@@H](NC(=O)[C@H](Cc1ccccc1)NC(=O)[C@@H](NC(=O)CNC(=O)[C@H](CCC(N)=O)NC(=O)C(C)(C)NC(=O)[C@@H](N)Cc1ccc(O)cc1)[C@@H](C)O)[C@@H](C)O)[C@@H](C)CC)C(=O)N[C@@H](CCC(=O)O)C(=O)N[C@@H](CCCCN)C(=O)N[C@@H](C)C(=O)N[C@@H](C)C(=O)N[C@@H](C)C(=O)NC(C)(C)C(=O)N[C@@H](CCC(=O)O)C(=O)N[C@@H](Cc1ccccc1)C(=O)N[C@H](C(=O)N[C@@H](CCC(=O)O)C(=O)N[C@@H](Cc1c[nH]c2ccccc12)C(=O)N[C@@H](CC(C)C)C(=O)N[C@@H](CCCCN)C(=O)N[C@@H](CC(N)=O)C(=O)N[C@H](C(=O)NCC(=O)N1CCC[C@H]1C(=O)N[C@@H](CO)C(=O)N[C@@H](CO)C(=O)NCC(=O)N[C@@H](C)C(=O)N1CCC[C@H]1C(=O)N1CCC[C@H]1C(=O)N1CCC[C@H]1C(=O)N[C@@H](CO)C(N)=O)[C@@H](C)O)[C@@H](C)CC)C(=O)O
B2: exendin-4 peptide analogue SEQ ID NO: 66 (peptide)
peptide: Y[Aib]QGTFTSDLSKQK([γGlu-Palmitoyl])DSRAAQDFIEWLKAGGPSSGAPPPS-NH2
modifications: N-terminus assumed
SMILES: CCCCCCCCCCCCCCCC(=O)N[C@@H](CCC(=O)NCCCC[C@H](NC(=O)[C@H](CCC(N)=O)NC(=O)[C@H](CCCCN)NC(=O)[C@H](CO)NC(=O)[C@H](CC(C)C)NC(=O)[C@H](CC(=O)O)NC(=O)[C@H](CO)NC(=O)[C@@H](NC(=O)[C@H](Cc1ccccc1)NC(=O)[C@@H](NC(=O)CNC(=O)[C@H](CCC(N)=O)NC(=O)C(C)(C)NC(=O)[C@@H](N)Cc1ccc(O)cc1)[C@@H](C)O)[C@@H](C)O)C(=O)N[C@@H](CC(=O)O)C(=O)N[C@@H](CO)C(=O)N[C@@H](CCCNC(=N)N)C(=O)N[C@@H](C)C(=O)N[C@@H](C)C(=O)N[C@@H](CCC(N)=O)C(=O)N[C@@H](CC(=O)O)C(=O)N[C@@H](Cc1ccccc1)C(=O)N[C@H](C(=O)N[C@@H](CCC(=O)O)C(=O)N[C@@H](Cc1c[nH]c2ccccc12)C(=O)N[C@@H](CC(C)C)C(=O)N[C@@H](CCCCN)C(=O)N[C@@H](C)C(=O)NCC(=O)NCC(=O)N1CCC[C@H]1C(=O)N[C@@H](CO)C(=O)N[C@@H](CO)C(=O)NCC(=O)N[C@@H](C)C(=O)N1CCC[C@H]1C(=O)N1CCC[C@H]1C(=O)N1CCC[C@H]1C(=O)N[C@@H](CO)C(N)=O)[C@@H](C)CC)C(=O)O

What was measured:
Experiment in all cases: cell-based or functional assay
[1] = molecular target: human glucagon receptor (human, UniProt P47871 26-477)
Sequence of human glucagon receptor (P47871 26-477): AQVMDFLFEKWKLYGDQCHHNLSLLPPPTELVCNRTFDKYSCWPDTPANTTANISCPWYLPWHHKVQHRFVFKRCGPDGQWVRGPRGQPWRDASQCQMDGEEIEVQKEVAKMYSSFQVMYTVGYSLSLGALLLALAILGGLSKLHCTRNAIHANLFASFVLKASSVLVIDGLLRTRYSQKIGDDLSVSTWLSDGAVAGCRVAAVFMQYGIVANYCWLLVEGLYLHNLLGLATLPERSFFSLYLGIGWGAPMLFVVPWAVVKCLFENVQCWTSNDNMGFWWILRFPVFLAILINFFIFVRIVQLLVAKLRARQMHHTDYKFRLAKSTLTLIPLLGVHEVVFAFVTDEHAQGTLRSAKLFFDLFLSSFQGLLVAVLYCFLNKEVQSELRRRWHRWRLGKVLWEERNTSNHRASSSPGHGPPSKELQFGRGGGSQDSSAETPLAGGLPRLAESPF

[2] = molecular target: T1, human GIP receptor
[3] = molecular target: human GLP-1 receptor (human, UniProt P43220 24-463)

Binder | EC50 hGLUC R [1] [pM] | EC50 hGIP R [2] [pM] | EC50 hGLP-1 R [3] [pM]
B1 | 139 | 8 | 5.5
B2 | 5.2 | 82.6 | 3.6
